doi:10.1101/2025.07.09.663943, “A multiplex extracellular interactome screening method employing high-avidity nanoparticles” (bioRxiv, 2025)

Columns and labels:
Experiment in all cases: Multiplex Interactome Assay (MPIA; bead-based, Luminex FLEXMAP 3D); runs D1-D4; baits ECD-hFc-ST3 on dimeric SC3 (SpyCatcher003-Cys) MagPlex beads, pooled; one prey a well: ECD-hFc-ST3 on 60-mer SC3-mi3 nanoparticles with GFP-V5-HA-ST3 adapter, 300 nM ECD where possible; 2 h at room temperature, 1% casein in 1x PBS; mouse anti-V5 and PE goat anti-mouse; read-out MFI; hit = seen in three of four runs
PVR ECD-hFc-ST3 (human) = PVR ECD-hFc-ST3 (human) (UniProt P15151)
PVR ECD-hFc-ST3 (human), sequence (P15151 21-343): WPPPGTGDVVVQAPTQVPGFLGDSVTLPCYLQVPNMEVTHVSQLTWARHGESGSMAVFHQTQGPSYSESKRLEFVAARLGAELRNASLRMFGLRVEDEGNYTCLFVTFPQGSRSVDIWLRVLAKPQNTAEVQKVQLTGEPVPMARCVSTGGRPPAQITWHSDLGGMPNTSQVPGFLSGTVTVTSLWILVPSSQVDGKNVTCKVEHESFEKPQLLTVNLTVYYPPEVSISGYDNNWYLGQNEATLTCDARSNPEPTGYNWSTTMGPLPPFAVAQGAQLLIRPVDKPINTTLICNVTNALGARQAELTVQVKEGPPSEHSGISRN

WFIKKN2-hFc-ST3 (human) = WFIKKN2-hFc-ST3 (human) (UniProt Q8TEU8)
IGFBPL1-hFc-ST3 = biological target: T1, IGFBPL1-hFc-ST3 (human, UniProt Q8WX77 26-278); conditions: both partners purified
T1 construct: Dimeric hFc-ST3 fusion behind the influenza HA signal peptide; prey on SC3-mi3 nanoparticles, bait on SC3 beads; source: Expi293, transfected, purified from supernatant (Ni-NTA / HisTrapFF); not shown: Fc (human IgG1, DAPA mutations), C-terminal, kept; FLAG, C-terminal, kept; SpyTag003, C-terminal, kept
T1 sequence (looked up): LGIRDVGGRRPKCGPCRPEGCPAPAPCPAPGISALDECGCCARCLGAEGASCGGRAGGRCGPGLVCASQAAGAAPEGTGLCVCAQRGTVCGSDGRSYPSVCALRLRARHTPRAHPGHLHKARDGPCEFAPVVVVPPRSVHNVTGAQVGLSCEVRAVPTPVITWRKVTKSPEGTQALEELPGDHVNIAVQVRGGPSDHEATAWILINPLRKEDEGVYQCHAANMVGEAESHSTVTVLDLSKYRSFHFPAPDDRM

[1] = biological target: PuncE11 ECD-hFc-ST3 (human) (UniProt Q8TDY8)
IL6R ECD-hFc-ST3 = biological target: T2, IL6R ECD-hFc-ST3 (human, UniProt P08887 20-365); conditions: both partners purified
T2 construct: IL6R (interleukin-6 receptor subunit alpha), human, extracellular domain; Dimeric ECD-hFc-ST3 fusion behind the influenza HA signal peptide; prey on SC3-mi3 nanoparticles, bait on SC3 beads; source: Expi293, transfected, purified from supernatant (Ni-NTA / HisTrapFF); not shown: Fc (human IgG1, DAPA mutations), C-terminal, kept; FLAG, C-terminal, kept; SpyTag003, C-terminal, kept
T2 sequence (looked up): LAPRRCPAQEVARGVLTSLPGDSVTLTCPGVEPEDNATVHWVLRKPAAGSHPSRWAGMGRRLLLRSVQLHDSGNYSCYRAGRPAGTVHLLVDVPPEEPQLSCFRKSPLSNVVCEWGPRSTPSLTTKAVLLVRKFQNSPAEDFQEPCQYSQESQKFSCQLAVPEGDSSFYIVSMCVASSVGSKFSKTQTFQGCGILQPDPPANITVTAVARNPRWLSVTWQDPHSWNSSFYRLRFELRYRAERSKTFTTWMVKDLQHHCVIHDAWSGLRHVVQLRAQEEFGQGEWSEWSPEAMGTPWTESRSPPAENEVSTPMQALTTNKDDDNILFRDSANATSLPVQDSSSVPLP

AXL ECD-hFc-ST3 = biological target: T3, AXL ECD-hFc-ST3 (human, UniProt P30530 26-451); conditions: both partners purified
T3 construct: AXL (tyrosine-protein kinase receptor UFO), human, extracellular domain; Dimeric ECD-hFc-ST3 fusion behind the influenza HA signal peptide; prey on SC3-mi3 nanoparticles, bait on SC3 beads; source: Expi293, transfected, purified from supernatant (Ni-NTA / HisTrapFF); not shown: Fc (human IgG1, DAPA mutations), C-terminal, kept; FLAG, C-terminal, kept; SpyTag003, C-terminal, kept
T3 sequence (looked up): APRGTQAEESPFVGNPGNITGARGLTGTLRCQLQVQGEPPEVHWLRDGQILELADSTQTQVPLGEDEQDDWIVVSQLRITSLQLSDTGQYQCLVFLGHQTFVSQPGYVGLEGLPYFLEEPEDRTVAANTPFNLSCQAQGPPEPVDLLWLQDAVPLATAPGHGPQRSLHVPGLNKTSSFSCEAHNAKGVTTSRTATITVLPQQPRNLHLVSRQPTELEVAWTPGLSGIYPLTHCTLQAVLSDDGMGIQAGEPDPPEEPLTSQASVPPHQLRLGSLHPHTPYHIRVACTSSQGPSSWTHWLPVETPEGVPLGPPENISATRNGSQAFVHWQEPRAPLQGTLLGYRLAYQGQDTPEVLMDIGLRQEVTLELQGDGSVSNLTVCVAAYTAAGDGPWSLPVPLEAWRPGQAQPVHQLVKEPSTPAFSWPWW

“KIR2DL5 ECD-hFc-ST3 (from UniProt Q8N109 22-238) (Fc fusion)” was tested. Which MFI (PVR ECD-hFc-ST3 (human)) did it give?
The MFI was 5360.

Which MFI (WFIKKN2-hFc-ST3 (human)) does the source give for “PuncE11 ECD-hFc-ST3 (from UniProt Q8TDY8 25-957) (Fc fusion)” here?
Its MFI is > 7000.

B1: DCC ECD-hFc-ST3 (Fc fusion, human, UniProt P43146 26-1097, looked up)
chain: HLQVTGFQIKAFTALRFLSEPSDAVTMRGGNVLLDCSAESDRGVPVIKWKKDGIHLALGMDERKQQLSNGSLLIQNILHSRHHKPDEGLYQCEASLGDSGSIISRTAKVAVAGPLRFLSQTESVTAFMGDTVLLKCEVIGEPMPTIHWQKNQQDLTPIPGDSRVVVLPSGALQISRLQPGDIGIYRCSARNPASSRTGNEAEVRILSDPGLHRQLYFLQRPSNVVAIEGKDAVLECCVSGYPPPSFTWLRGEEVIQLRSKKYSLLGGSNLLISNVTDDDSGMYTCVVTYKNENISASAELTVLVPPWFLNHPSNLYAYESMDIEFECTVSGKPVPTVNWMKNGDVVIPSDYFQIVGGSNLRILGVVKSDEGFYQCVAENEAGNAQTSAQLIVPKPAIPSSSVLPSAPRDVVPVLVSSRFVRLSWRPPAEAKGNIQTFTVFFSREGDNRERALNTTQPGSLQLTVGNLKPEAMYTFRVVAYNEWGPGESSQPIKVATQPELQVPGPVENLQAVSTSPTSILITWEPPAYANGPVQGYRLFCTEVSTGKEQNIEVDGLSYKLEGLKKFTEYSLRFLAYNRYGPGVSTDDITVVTLSDVPSAPPQNVSLEVVNSRSIKVSWLPPPSGTQNGFITGYKIRHRKTTRRGEMETLEPNNLWYLFTGLEKGSQYSFQVSAMTVNGTGPPSNWYTAETPENDLDESQVPDQPSSLHVRPQTNCIIMSWTPPLNPNIVVRGYIIGYGVGSPYAETVRVDSKQRYYSIERLESSSHYVISLKAFNNAGEGVPLYESATTRSITDPTDPVDYYPLLDDFPTSVPDLSTPMLPPVGVQAVALTHDAVRVSWADNSVPKNQKTSEVRLYTVRWRTSFSASAKYKSEDTTSLSYTATGLKPNTMYEFSVMVTKNRRSSTWSMTAHATTYEAAPTSAPKDLTVITREGKPRAVIVSWQPPLEANGKITAYILFYTLDKNIPIDDWIMETISGDRLTHQIMDLNLDTMYYFRIQARNSKGVGPLSDPILFRTLKVEHPDKMANDQGRHGDGGYWPVDTNLIDRSTLNEPPIGQMHPPHGSVTPQKNSN
notes: DCC (netrin receptor DCC), human, extracellular domain; Dimeric ECD-hFc-ST3 fusion behind the influenza HA signal peptide; prey on SC3-mi3 nanoparticles, bait on SC3 beads; source: Expi293, transfected, purified from supernatant (Ni-NTA / HisTrapFF); not shown: Fc (human IgG1, DAPA mutations), C-terminal, kept; FLAG, C-terminal, kept; SpyTag003, C-terminal, kept
For B1, which MFI (IGFBPL1-hFc-ST3) is on record?
The MFI was > 7000.

B2: WFIKKN2-hFc-ST3 (Fc fusion)
chain: LPPIRYSHAGICPNDMNPNLWVDAQSTCRRECETDQECETYEKCCPNVCGTKSCVAARYMDVKGKKGPVGMPKEATCDHFMCLQQGSECDIWDGQPVCKCKDRCEKEPSFTCASDGLTYYNRCYMDAEACSKGITLAVVTCRYHFTWPNTSPPPPETTMHPTTASPETPELDMAAPALLNNPVHQSVTMGETVSFLCDVVGRPRPEITWEKQLEDRENVVMRPNHVRGNVVVTNIAQLVIYNAQLQDAGIYTCTARNVAGVLRADFPLSVVRGHQAAATSESSPNGTAFPAAECLKPPDSEDCGEEQTRWHFDAQANNCLTFTFGHCHRNLNHFETYEACMLACMSGPLAACSLPALQGPCKAYAPRWAYNSQTGQCQSFVYGGCEGNGNNFESREACEESCPFPRGNQRCRACKPRQKLVTSFCRSDFVILGRVSELTEEPDSGRALVTVDEVLKDEKMGLKFLGQEPLEVTLLHVDWACPCPNVTVSEMPLIIMGEVDGGMAMLRPDSFVGASSARRVRKLREVMHKKTCDVLKEFLGLH
How did the MFI [1] turn out when B2 was run?
The MFI was > 7000.

B3: TIGIT ECD-hFc-ST3 (Fc fusion, human, UniProt Q495A1 22-141, looked up)
chain: MMTGTIETTGNISAEKGGSIILQCHLSSTTAQVTQVNWEQQDQLLAICNADLGWHISPSFKDRVAPGPGLGLTLQSLTVNDTGEYFCIYHTYPDGTYTGRIFLEVLESSVAEHGARFQIP
notes: TIGIT, human, extracellular domain; Dimeric ECD-hFc-ST3 fusion behind the influenza HA signal peptide; prey on SC3-mi3 nanoparticles, bait on SC3 beads; source: Expi293, transfected, purified from supernatant (Ni-NTA / HisTrapFF); not shown: Fc (human IgG1, DAPA mutations), C-terminal, kept; FLAG, C-terminal, kept; SpyTag003, C-terminal, kept
Does B3 bind (IL6R ECD-hFc-ST3)?
Result: binds

B4: ILRL1 ECD-hFc-ST3 (Fc fusion, human, UniProt Q01638 19-328, looked up)
chain: KFSKQSWGLENEALIVRCPRQGKPSYTVDWYYSQTNKSIPTQERNRVFASGQLLKFLPAAVADSGIYTCIVRSPTFNRTGYANVTIYKKQSDCNVPDYLMYSTVSGSEKNSKIYCPTIDLYNWTAPLEWFKNCQALQGSRYRAHKSFLVIDNVMTEDAGDYTCKFIHNENGANYSVTATRSFTVKDEQGFSLFPVIGAPAQNEIKEVEIGKNANLTCSACFGKGTQFLAAVLWQLNGTKITDFGEPRIQQEEGQNQSFSNGLACLDMVLRIADVKEEDLLLQYDCLALNLHGLRRHTVRLSRKNPIDHHS
notes: The label ILRL1 is printed once only; Dimeric ECD-hFc-ST3 fusion behind the influenza HA signal peptide; prey on SC3-mi3 nanoparticles, bait on SC3 beads; source: Expi293, transfected, purified from supernatant (Ni-NTA / HisTrapFF); not shown: Fc (human IgG1, DAPA mutations), C-terminal, kept; FLAG, C-terminal, kept; SpyTag003, C-terminal, kept
B4 was tested. Which MFI (AXL ECD-hFc-ST3) did it give?
The MFI was 5780.
